Key:
IGFBP-1 [1] = target: T1, IGFBP-1 (Homo sapiens, UniProt P08833); assay: Azurocidin-dependent IGFBP-1 protease activity (SDS-PAGE, ECL or silver staining); type: biochemical; details: for effect on IGFBP-1 (proteolysis): commercial recombinant protein from mouse myeloma cells
T1 construct: purchased Kabi Pharmacia (Sweden), donated
T1 sequence (P08833 26-259): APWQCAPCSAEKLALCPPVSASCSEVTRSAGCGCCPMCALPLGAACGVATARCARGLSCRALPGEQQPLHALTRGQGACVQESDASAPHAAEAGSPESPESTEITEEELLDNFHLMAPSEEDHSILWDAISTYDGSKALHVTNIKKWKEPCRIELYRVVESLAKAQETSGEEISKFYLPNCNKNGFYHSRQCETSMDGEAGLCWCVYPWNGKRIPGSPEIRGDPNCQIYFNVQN
Procedure: Recombinant phosphorylated IGFBP-1 was used as substrate and incubations were carried out under neutral conditions for 2 h at 37 C. IGFBP-1 fragments were separated on SDS-PAGE, and detected by ECL as described in the methods. Panel A: Incubations with 0.25 μL eluate (HE) from heparin affinity chromatography (50 μl urine equiv.) in the presence and absence of anti-azurocidin antibody; and 1 μl HE of the loading material (L), and the flow through after affinity chromatography on protein G columns without (G) and with bound anti-chymase (C) or anti-azurocidin (A) antibodies. Panel B: Incubations in the presence and absence of 25 ng anti-azurocidin antibody with increasing volumes of white cell extract from the individual with a specific IGFBP-1 protease in urine compared to the white cell extract pooled from 6 healthy subjects;
Recombinant IGFBP-1 was incubated with the eluate from heparin affinity chromatography (HE) with a ratio of azurocidin:BP-1 of 1:3,500. After the times indicated, proteins were detected by silver staining after SDS-PAGE;
Gels were fixed, dried and analysed with the Fuji PhosphoImage program (Fuji Co., Stockholm, Sweden). Biotinylated IGFBP-1 and its fragments were separated on 14% SDS-PAGE under reducing conditions, transferred to PVDF (Biorad, Sundbyberg, Sweden), incubated with neutravidin-horseradish peroxidase (Pierce Biotechnology Inc, Rochester, Ill.) and detected by ECL (Amersham Biosciences, Uppsala, Sweden). Silver staining of proteins and fragments was performed after denaturing 12% PAGE under reducing conditions (SilverQuest and NuPAGE, Invitrogen, Stockholm, Sweden).
Heparin affinity chromatography was carried out in batches using heparin-agarose gel (Pharmacia). Urine was diluted 1:5 in 10 mM sodium phosphate, with 0.25 M NaCl buffer, pH 7 and incubated with gel for 30 min at 4 C. The gel was transferred to a column and washed with 10 times the gel volume of buffer. Heparin binding proteins were eluted in loading buffer containing 2M NaCl and the eluate was desalted, concentrated using a 10 kDa spin column and stored at −80 C. Concentrated material derived from 700 ml urine were applied to C4 reverse-phase HPLC, in 0.1% TFA on an acetonitrile gradient of 0-100%. Immunoaffinity chromatography was performed using monoclonal anti-azurocidin antibody attached to protein G Sepharose (Sigma-Aldrich, Sweden). In brief, antibody bound gel was incubated with the eluate from heparin affinity chromatography for 2 h at 22 C, and transferred to a Bio-Spin chromatography column (BioRad). The flow-through was collected for analysis of protease activity. As controls, an additional column was prepared with a monoclonal antibody against human mast cell chymase and a second column with no bound antibody.

IGFBP-1 [2] = target: T1, IGFBP-1; assay: Sequence analysis of IGFBP-1 fragments after azurocidin-dependent proteolysis; type: biochemical
Procedure: A: Recombinant npIGFBP-1 was incubated without (−) and with (+) 0.25 μl partially purified azurocidin in a protease:substrate ratio of 1:3 500 for 2 h at 37 C. The fragments were purified on HPLC. N-, purified fragments with the N-terminal sequence of IGFBP-1, APWQCAP-, c-, small fragment with the sequence STYDGSK-, C-, purified C-terminal fragments with the sequence TNIKKWK-. Samples were separated on 12% SDS-PAGE and visualised by silver staining. Molecular mass markers are indicated by the arrows. B: Summary of sequence analysis of IGFBP-1 fragments after azurocidin-dependent proteolysis. N-terminal sequence analysis was performed on fragments purified by HPLC on 4 separate occasions. C-terminal sequence analysis was perform on one HPLC run. Cleavage sites are indicated by the arrows. a, the primary cleavage site present in 4 runs. b, a secondary cleavage site, present in 3 runs. c, cleavage sites, each identified in only one of the four runs. […]
The primary cleavage site in IGFBP-1 was determined by HPLC-separation of phosphorylated IGFBP-1 after incubation with heparin eluate, and HPLC purification of fragments, followed by N- and C-terminal sequencing. […] N- and C-terminal sequencer degradations were performed on HPLC purified proteins in ABI instruments as described (refs 2 and 3), From this analysis, the quantity of azurocidin quantity in urine was estimated to be 25 pmol/100 ml.

B1: partially purified azurocidin: desalted eluate of heparin affinity chromatography of human urine, containing azurocidin, myeloperoxidase and lactoferrin (protein)
chain: IVGGRKARPRQFPFLASIQNQGRHFCGGALIHARFVMTAASCFQSQNPGVSTVVLGAYDLRRRERQSRQTFSISSMSENGYDPQQNLNDLMLLQLDREANLTSSVTILPLPLQNATVEAGTRCQVAGWGSQRSGGRLSRFPRFVNVTVTPEDQCRPNNVCTGVLTRRGGICNGDGGTPLVCEGLAHGVASFSLGPCGRGPDFFTRVALFRDWIDGVLNNPGP
IGFBP-1 [1]; 0.1% TFA in HPLC buffer, lyophilization, reconstitution in assay buffer
  IGFBP-1 proteolytic activity after exposure to 0.1% TFA: abolished
IGFBP-1 [1]; after heparin affinity chromatography of urine
  IGFBP-1 protease activity: present
IGFBP-1 [1]; data not shown
  IGFBP-1 proteolytic activity after reduction with dithiothreitol: loss of activity
IGFBP-1 [2]; present in 3 of the HPLC runs
  secondary cleavage site in IGFBP-1: Val^141-Thr^142
IGFBP-1 [2]; present in all 4 HPLC runs, confirmed by C-terminal sequence analysis
  primary cleavage site in IGFBP-1: Ile^130-Ser^131

B2: Recombinant human azurocidin^27-250: recombinant azurocidin 27-250 purified from murine myeloma cells, R&D Systems (protein)
chain: IVGGRKARPRQFPFLASIQNQGRHFCGGALIHARFVMTAASCFQSQNPGVSTVVLGAYDLRRRERQSRQTFSISSMSENGYDPQQNLNDLMLLQLDREANLTSSVTILPLPLQNATVEAGTRCQVAGWGSQRSGGRLSRFPRFVNVTVTPEDQCRPNNVCTGVLTRRGGICNGDGGTPLVCEGLAHGVASFSLGPCGRGPDFFTRVALFRDWIDGVLNNPGPGP
IGFBP-1 [1]; data not shown
  effect on IGFBP-1 (proteolysis): no effect
IGFBP-1 [1]; data not shown, listed as recombinant azurocidin
  effect on IGFBP-1 (proteolysis): lacked activity

Source: US20100129344A1, “MEDICAL USES AND THERAPIES BASED UPON THE ACTION OF AZUROCIDIN ON IGFBP-1” (priority 2005, published 2010)
